The record followed here is the DeepSol protein solubility set.

A short description of the data set: soluble on expression in E. coli; label from the status in PepcDB or PDB records.
As to “MSKKVAIVGAGPGGLATAIRLAGLGYQVEIFEAAERVGGRMRGFEVDSYAFDTGPTILQLPHLYKELFEEAGLNFADYVQLKRLEPYTRLKFWDGTQLDITSDLQSFKTQLATLRSDLPLAFDRWYSEHIRKYELGYKPYLAGPARSIFGYLRPDELMKFLSFRPWENLYQHFWRFFQDERLVYALSYPSKYLGMHPTVASSVFSLIPFLEFSQGVWHPVGGFRALAQGLANAAQDLGVKIHLHSPVHQIWIEQGQVRGLELADASRHQFDTVVINADFAYAVRHLLPTSARGRYTDNKLGQMQFSCSTFMLYLGINRRYEDLPHHQIYLSDNIRRLERPWVDDSALDETDPPFYVCNPTIIDPSNAPAGHSTLFVLVPIPNTSYAVDWDIKQKSYTDFILKRLHLLGYHNIEQHIVTQSCYTAQSWLDDYRVHLGAVFNLSHNLTQLGPFRPPIRSENIAGLYWIGGAVHPGSGLLTILEASRSAAGFIHQDFASTGSLEHHHHHH”, the “soluble on expression in E. coli” value is recorded as “not soluble”.
For “MSKLEELDIVSNNILILKKFYTNDEWKNKLDSLIDRIIKAKKIFIFGVGRSGYIGRCFAMRLMHLGFKSYFVGETTTPSYEKDDLLILISGSGRTESVLTVAKKAKNINNNIIAIVCECGNVVEFADLTIPLEVKKSKYLPMGTTFEETALIFLDLVIAEIMKRLNLDESEIIKRHCNLL” the value was “soluble”; for “MSKLGKQDVYYFEGLDDILIAMMTTKDAVGTEPAFGEVVRLPIATKLGIKGNGTALEKWASSKMFRRVSRETKHEIALDHVGIPIAVMDEIKGLIAQSGVTFGKNTAREFPYFAFGFIGNIENGGKKAVWYPKTQLSNVIDEEYTTAEDETKIDDVTANFVSTGLTYNNVMYSSFDSNRDSASIELFEKFIAQPVYDEEQWKKLAGPSRGGGSE”, “not soluble”.
For the sequence “MSKLVGNLIPNTFFITKGSGESDLELHAGSYHMALFDAGISDFNIMTYSSVLPATAHLATMDEIDLPPFGSELKTIMAVSHGYQDEFVSAGVVYAWMYKDENFDEKAGGLVCEVSGRYRIEELESRLIRVINDLHQKTYSQYYLGELNFITEGITIEKRYGTALAGLCFMDFIQPEVQKK”, the “soluble on expression in E. coli” value is “not soluble”.
Turning to “MSKRKVAIIGSGNIGTDLMIKILRHGQHLEMAVMVGIDPQSDGLARARRMGVATTHEGVIGLMNMPEFADIDIVFDATSAGAHVKNDAALREAKPDIRLIDLTPAAIGPYCVPVVNLEANVDQLNVNMVTCGGQATIPMVAAVSRVARVHYAEIIASIASKSAGPGTRANIDEFTETTSRAIEVVGGAAKGKAIIVLNPAEPPLMMRDTVYVLSDEASQDDIEASINEMAEAVQAYVPGYRLKQRVQFEVIPQDKPVNLPGVGQFSGLKTAVWLEVEGAAHYLPAYAGNLDIMTSSALATAEKMAQSLARKAGEAA”, the “soluble on expression in E. coli” value is reported as “soluble”.
Regarding “MSKRPVIESEKPAWHDEDDDNMVVAVPKKVKMTMRVELKRTTDEEHGELDSKEYVGRLQEAFRKRHGGTPKWAKAAAGDEEEGSLLKTAAGYLAKDVNLPKTTIHTTLIKDFNIGHRYTRGITVVKFHKTRPVLIVADQGGNVQLFKVSREVKKDRFLQSANFSKFPIDSLEIADKGHSVICSSSRKEYLMQYNMETREVTQLKPPNTVPKQGIRLFAISHDSQFLAIAGHNSHIYVLHATSMEHITTISLPANASEIKFFPSHSREIWIICETGQIVIANIGLPGTKSSQHTFTDDGAVHGTTLAISQHGDYFATGSDTGIVNVYSGNDCRNSTNPRPLFNVSNLVTAVSSIAFNSDAQLMAICSNVKDNHLRLVHVASQTTFKNFPERNGKVTHARCVEFSPNGGYMAVGNDDGRLHVFEIHHFTDY”, the “soluble on expression in E. coli” value is “not soluble”.
Turning to “MSKTAIIFPGQGAQKVGMAQDLFNNNDQATEILTSAANTLDFDILETMFTDEEGKLGETENTQPALLTHSSALLAALKNLNPDFTMGHSLGEYSSLVAADVLSFEDAVKIVRKRGQLMAQAFPTGVGSMAAVLGLDFDKVDEICKSLSSDDKIIEPANINCPGQIVVSGHKALIDELVEKGKSLGAKRVMPLAVSGPFHSSLMKVIEEDFSSYINQFEWRDAKFPVVQNVNAQGETDKEVIKSNMVKQLYSPVQFINSTEWLIDQGVDHFIEIGPGKVLSGLIKKINRDVKLTSIQTLEDVKGWNEND”, the “soluble on expression in E. coli” value is “not soluble”.
As for “MSKTIIKNIGKIVSGDIKSPVLQADTIVVEDGLIAAIGGEELMKDAGDATIIDAAGSTVTPGLLDTHVHVSGGDYAPRQKTMDFISSALHGGVTTMISAGSPHFPGRPKDAAGTKALAITLSKSYYNARPAGVKVHGGAVILEKGLTEEDFIEMKKEGVWIVGEVGLGTIKNPEDAAPMVEWAHKHGFKVQMHTGGTSIPGSSTVTADDVIKTKPDVVSHINGGPTAISVQEVDRIMDETDFAMEIVQCGNPKIADYVARRAAEKGQLGRVIFGNDAPSGTGLIPLGILRNMCQIASMSDIDPEVAVCMATGNSTAVYGLNTGVIAPGKEADLIIMDTPLGSVAEDAMGAIAAGDIPGISVVLIDGEAVVTKSRNTPPAKRAAKIL”, the “soluble on expression in E. coli” value is “soluble”.
As to “MSKTYHFIGIKGSGMSALALMLHQMGHNVQGSDVDKYYFTQRGLEQAGVTILPFSPNNISEDLEIIAGNAFRPDNNEELAYVIEKGYQFKRYHEFLGDFMRQFTSLGVAGAHGKTSTTGLLAHVLKNITDTSFLIGDGTGRGSANANYFVFEADEYERHFMPYHPEYSIITNIDFDHPDYFTGLEDVFNAFNDYAKQVQKGLFIYGEDPKLHEITSEAPIYYYGFEDSNDFIAKDITRTVNGSDFKVFYNQEEIGQFHVPAYGKHNILNATAVIANLYIMGIDMALVAEHLKTFSGVKRRFTEKIIDDTVIIDDFAHHPTEIIATLDAARQKYPSKEIVAIFQPHTFTRTIALLDEFAHALSQADSVYLAQIYGSAREVDNGEVKVEDLAAKIVKHSDLVTVENVSPLLNHDNAVYVFMGAGDIQLYERSFEELLANLTKNTQ”, the “soluble on expression in E. coli” value is “not soluble”.
Consider “MSKVIQKKNHWTSRVHECTVKRGPQGELGLTVLGGAEHGEFPYVGAVAAVEAAGLPGGGEGPRLGEGELLLEVQGVRVSGLPRYDVLGVIDSCKEAVTFKAVRQGGRLNKDLRHFLNQRFQKGSPDHELQQTIRDNLYRHAVPCTTRSPREGEVPGVDYNFLTVKEFLDLEQSGTLLEVGTYEGNYYGTPKPPSQPVSGKVITTDALHSLQSGSKQSTPKRTKSYNDMQNAGIVHAENEEEDDVPEMNSSFTADSGEQEEHTLQETALPPVNSSIIAAPITDPSQKFPQYLPLSAEDNLGPLPENWEMAYTENGEVYFIDHNTKTTSWLDPRCLNKQQKPLEECEDDEGVHTEELDSELELPAGWEKIEDPVYGIYYVDHINRKTQYENPVLEAKRKKQLEQQQQQQQQQQQQQQQQQQQQQTEEWTEDHSALVPPVIPNHPPSNPEPAREVPLQGKPFFTRNPSELKGKFIHTKLRKSSRGFGFTVVGGDEPDEFLQIKSLVLDGPAALDGKMETGDVIVSVNDTCVLGHTHAQVVKIFQSIPIGASVDLELCRGYPLPFDPDDPNTSLVTSVAILDKEPIIVNGQETYDSPASHSSKTGKVNGMKDARPSSPADVASNSSHGYPNDTVSLASSIATQPELITVHIVKGPMGFGFTIADSPGGGGQRVKQIVDSPRCRGLKEGDLIVEVNKKNVQALTHNQVVDMLVECPKGSEVTLLVQRGGLPVPKKSPKSQPLERKDSQNSSQHSVSSHRSLHTASPSHSTQVLPEFPPAEAQAPDQTDSSGQKKPDPFKIWAQSRSMYENRPMSPSPASGLSKGEREREINSTNFGECPIPDYQEQDIFLWRKETGFGFRILGGNEPGEPIYIGHIVPLGAADTDGRLRSGDELICVDGTPVIGKSHQLVVQLMQQAAKQGHVNLTVRRKVVFAVPKTENEVPSPASSHHSSNQPASLTEEKRTPQGSQNSLNTVSSGSGSTSGIGSGGGGGSGVVSTVVQPYDVEIRRGENEGFGFVIVSSVSRPEAGTTFGNACVAMPHKIGRIIEGSPADRCGKLKVGDRILAVNGCSITNKSHSDIVNLIKEAGNTVTLRIIPGDESSNATLLTNAEKIATITTTHTPSQQGTQETRNTTKPKQESQFEFKAPQATQEQDFYTVELERGAKGFGFSLRGGREYNMDLYVLRLAEDGPAERCGKMRIGDEILEINGETTKNMKHSRAIELIKNGGRRVRLFLKRGDGSVPEYAM”, for which the “soluble on expression in E. coli” value is “soluble”.
“MSKVKRKLKNIVRNIMLSETFANTNLVKNMRKNHKEKLEEGRRVLFKEHAKDCLETIKENLDKNNLHFWLDYGTLLGAMREKDFIAHDLDIDLGMFYENQVEEVEKAFKEANIKKVREFTLDGKVVEQTYSYKGLYFDIFYYFKDENLMWTYGFTFKNNKLNKVSYKDKDVSTGFEGMKYFVKKRGLEKIMFKGKEYTVPENPDGYLRENYGPNYMTPIKEWDYVEAPTNQEKLKGGDIVMIEYYNLEHHHHHH”: the “soluble on expression in E. coli” value is recorded as “soluble”.
For “MSKVPSDIEIAQAAKMKPVMELARGLGIQEDEVELYGKYKAKISLDVYRRLKDKPDGKLILVTAITPTPAGEGKTTTSVGLTDALARLGKRVMVCLREPSLGPSFGIKGGAAGGGYAQVVPMEDINLHFTGDIHAVTYAHNLLAAMVDNHLQQGNVLNIDPRTITWRRVIDLNDRALRNIVIGLGGKANGVPRETGFDISVASEVMACLCLASDLMDLKERFSRIVVGYTYDGKPVTAGDLEAQGSMALLMKDAIKPNLVQTLENTPAFIHGGPFANIAHGCNSIIATKTALKLADYVVTEAGFGADLGAEKFYDVKCRYAGFKPDATVIVATVRALKMHGGVPKSDLATENLEALREGFANLEKHIENIGKFGVPAVVAINAFPTDTEAELNLLYELCAKAGAEVALSWAKGGEGGLELARKVLQTLESRPSNFHVLYNLDLSIKDKIAKIATEIYGADGVNYTAEADKAIQRYESLGYGNLPVVMAKTQYSFSDDMTKLGRPRNFTITVREVRLSAGGRLIVPITGAIMTMPGLPKRPAACNIDIDADGVITGLF”, the “soluble on expression in E. coli” value is “soluble”.
Regarding “MSLAAENILQRQFKAEAPCEKWVTDITEFRAGGQKLYLSPILDLFYGEIVAWETACRPTEELVKRMLNKGLESLAEGEKPLLHSDQGWHYRIKSYQSALADRGLVQSMSRKGNSLDNAVMENFFGHLKEEMYYRRDYRNVEELENAVNEYITYWNQKRIKLSLGGLSPVEYRTEYQKAGEGHHHHHH”, the “soluble on expression in E. coli” value is “not soluble”.
Take “MSLADKRKHRFSVRYWLWRHTSLKRVAFCGRVAASAVASVGVRCSDGRAGFAGLQSCGSVWACPVCNAKIMARRGLELGAAVETWTKHGGRVAFMTFTVRHSRKDSLTAVWDGVASGWRRVTSGKGWTSDQLRHGVEGFVRVVEVTHGRNGWHVHLHVLVFLVGDFGDALALHRSMFGRWERGVLAAGLGTPLARAQDVQQMSAATGLDHLARYLSKAQFQGKIGHELTNSQSKTARSALSTRSTWEVLGDAANGLAKEVGLWFEWEKGSRGRRQIGWSAGLRDRLGLMVEESDDVIAAEEVGSVADTVALITGDGWRRLVGQQKLYECLRSCELGGQAGLARWLQEHGIEHELVEVDEGHHHHHH”: the “soluble on expression in E. coli” value is “soluble”.
